Data reported in US9650447 (dated 2017).

Experiments:
EBV gp350 [1] = target: T1, EBV gp350 (Epstein-Barr virus, UniProt P03200); assay: ITC
T1 chain: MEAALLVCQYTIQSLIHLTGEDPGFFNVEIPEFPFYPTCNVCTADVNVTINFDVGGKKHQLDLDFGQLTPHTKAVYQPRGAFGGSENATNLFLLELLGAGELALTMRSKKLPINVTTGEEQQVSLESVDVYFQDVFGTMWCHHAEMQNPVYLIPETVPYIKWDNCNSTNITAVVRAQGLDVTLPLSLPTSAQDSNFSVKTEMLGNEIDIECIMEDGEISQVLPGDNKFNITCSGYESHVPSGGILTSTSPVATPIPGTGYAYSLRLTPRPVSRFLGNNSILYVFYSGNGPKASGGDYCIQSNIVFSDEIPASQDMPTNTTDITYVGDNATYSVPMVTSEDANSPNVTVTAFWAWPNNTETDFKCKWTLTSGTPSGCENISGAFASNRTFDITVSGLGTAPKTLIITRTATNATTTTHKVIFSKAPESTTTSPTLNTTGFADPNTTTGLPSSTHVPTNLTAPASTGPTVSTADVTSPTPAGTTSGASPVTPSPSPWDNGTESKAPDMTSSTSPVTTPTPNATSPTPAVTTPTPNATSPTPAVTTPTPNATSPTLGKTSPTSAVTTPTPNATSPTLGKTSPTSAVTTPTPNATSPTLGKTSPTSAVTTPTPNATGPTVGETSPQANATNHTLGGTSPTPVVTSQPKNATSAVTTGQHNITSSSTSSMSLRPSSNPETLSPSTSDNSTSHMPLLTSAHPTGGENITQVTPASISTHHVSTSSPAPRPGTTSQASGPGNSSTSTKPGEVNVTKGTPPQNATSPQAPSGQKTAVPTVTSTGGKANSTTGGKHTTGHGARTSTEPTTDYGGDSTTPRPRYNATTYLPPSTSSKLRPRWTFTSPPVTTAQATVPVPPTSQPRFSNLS

C3d [2] = target: T2, C3d (human, UniProt P01024); assay: ITC, two-site fit, weak site
C3d [3] = target: T2, C3d; assay: ITC, two-site fit, tight site
C3d [4] = target: T2, C3d; assay: other (NMR titration, weak site)
EBV gp350 [5] = target: T1, EBV gp350; assay: other (NMR titration, upper limit)
C3d [6] = target: T2, C3d; assay: other (NMR titration, tight site, upper limit)

T2 sequence (P01024 1002-1303): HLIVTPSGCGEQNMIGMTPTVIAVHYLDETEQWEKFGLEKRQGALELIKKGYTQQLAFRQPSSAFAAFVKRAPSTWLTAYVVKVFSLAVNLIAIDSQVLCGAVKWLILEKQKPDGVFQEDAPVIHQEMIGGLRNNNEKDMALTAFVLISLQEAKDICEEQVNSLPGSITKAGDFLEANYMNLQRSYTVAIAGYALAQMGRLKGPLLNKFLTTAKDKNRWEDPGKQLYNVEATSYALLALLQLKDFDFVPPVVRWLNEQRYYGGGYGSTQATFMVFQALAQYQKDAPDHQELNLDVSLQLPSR

B1: human CR2 SCR1-2 (protein)
chain: ISCGSPPPILNGRISYYSTPIAVGTVIRYSCSGTFRLIGEKSLLCITKDKVDGTWDKPAPKCEYFNKYSSCPEPIVPGGYKIRGSTPYRHGDSVTFACKTNFSMNGNKSVWCQANNMWGPTRLPTCVS
Kd (EBV gp350 [1]): 0.014 µM | Kd (C3d [2]): 160 µM | Kd (C3d [3]): 0.13 µM | Kd (C3d [4]): 130 µM | Kd (EBV gp350 [5]): < 60 µM | Kd (C3d [6]): < 45 µM
